Results: the DeepSol protein solubility set

Assay: soluble on expression in E. coli; label from the status in PepcDB or PDB records

Sequence	soluble on expression in E. coli
MSSVGDFEEIILHDLKPYYHVPGAIHSEGITFVKETGTLLWVDIFKGEVHKVEDIEQPESSHSFFSISRANYGKNASIEYPPNPDELKESVGCIFPILDGASQNEIKQVLFGSKFGIGKLDFSKSEWEYVILYSECPELSTDRAYKLRSNDGNVSPDGKYIYVGLMSDFPFDLEPIGCLLRVDLLAHKIELVWNCLLIPNAIHWDESDQKTMYVTDSLNFTIWKCPGGDLLKRDELIDVKNSNNQSFESPEPDGSAIWFSKDGKHSGFLFITVWSTSKVQMFDLTNGKLLKEFILPEQTPRVSCCCFVGKDLFVTTANAEINDAVRTNTDKNGGCIYKIPNVLDGNVPLESTKRQPLH	soluble
MSSVYTMKRIWLQKDKKAYQAWRELMEKAELQTTEALDYTVGIYDDTALIASGSLSGKTIKCVAVCKKYQSENLLTQLVVHLLEKLREENQLHSFLYTKPKNEQIFQSLGFQKVVANQEVLFMEQGKPDFADYLGYLTQHKKAGPASSIVMNANPFTKGHQYLVEKAAQESPHVYVFVLSEDKSLFSKEARFAMVQKGVAHLPNVTVLSTEDYLVSSATFPTYFLKEKAPLEVAAIQATLDATLFKERIAPILEIQQRYVGEEPYSEVTAVYNQAMQQVFGQTITLTIVPRLASDGELISATKVRKAMAEGDKETLKKFLPATSYQYLVEHKKLMR	not soluble
MSTDVAAAQAQSKIDLTKKKNEEINKKSLEEDDEFEDFPIDTWANGETIKSNAVTQTNIWEENWDDVEVDDDFTNELKAELDRYKRENQ	soluble
MSTFFQQTAQAMIAKHIDRFPLLKLDQVIDWQPIEQYLNRQKTRYLRDHRGRPACPLLSMFKAVLLGQWHNLSDPELEHSLITRIDFNLFCRFDELSIPDYSTLCRYRNRLAQDDTLSELLELINRQLTEKGLKVEKASAAVVDATIIQTVGSKQRQAIEVDEEGQVSGQTTLSKDKNARWTKKNSLYKLGYKQHTRTDAEGYIEKLHITPANAHECKHLSPLLEGLPEGTTIYADKGYDSAENRQHLEEHQLQDGIMRKACRNRPLTETQTKRNRYLSKTRYVVEQSFGTLHRKFRYARAAYFGLICARCRLKGSPDA	not soluble
MSTFFRQTAQAMIAKHINRFPLLKLDQVIDWQPIEQYLNRQKTRYLRDHRGRPAYPLLSMFKAVLLGQWHSLSDPELEHSLITRIDFNLFCRFDELSIPDYSTLCRYRNWLAQDDTLSELLELINCQLTEKGLKVEKASAAVIDATIIQTAGSEQRQAIEVDEEGQISGQTTPSKDSDARWIKKNGLYKLGYKQHTRTDAEGYIEKLHITPANAHECKHLSPLLEGLPEGTTVYADKGYDSAENRQHLEEHQLLDGIMSKACRNRPLSEVQTKRNRYLSKTRYSGLNLNQDKATKPQTVQIVRQGEATPYWFKFNPLYVVEQSFGTLHRKFRYARAAYFGLIKVSAQSHLKAMCLNLLKAANRLSAPAAA	not soluble
MSTKPEKPIWMSQEDYDRQYGSITGDESSTVSKKDSKVTANAPGDGNGSLPVLQSSSILTSKVSDLPIEAESGFKIQKRRHERYDQEERLRKQRAQKLREEQLKRHEIEMTANRSINVDQIVREHYNERTIIANRAKRNLSPIIKLRNFNNAIKYMLIDKYTKPGDVVLELGCGKGGDLRKYGAAGISQFIGIDISNASIQEAHKRYRSMRNLDYQVVLITGDCFGESLGVAVEPFPDCRFPCDIVSTQFCLHYAFETEEKARRALLNVAKSLKIGGHFFGTIPDSEFIRYKLNKFPKEVEKPSWGNSIYKVTFENNSYQKNDYEFTSPYGQMYTYWLEDAIDNVPEYVVPFETLRSLADEYGLELVSQMPFNKFFVQEIPKWIERFSPKMREGLQRSDGRYGVEGDEKEAASYFYTMFAFRKVKQYIEPESVKPN	soluble
MSTNEAAASQEDIALAQGAVLVKSCQVPDGSIPIRGFDFSTASGPDFSLSAILSSYMSTGFQATHLAQAIQQVNQMLSLRDTPLTCDDDEKLFPYPEGRQKRSCTIFLGYTSNLVTSGLREVLRYCVQRNLVDCIVTSAGGIEEDLIKCLKPSYLGTFTMDGAKLRSNGMNRAGNVLIPNDNYCAFEDWLMPILDECLVEQEEKHLNWTPSKLIQRLGERIGDESSILYWAAKHRIPVFCPALTDGSLGDMLYFHSVKSSPGLRVDIVEDVRHINTIAVKSFKTGSIILGGGVVKHHINNANLMRNGADHTVYINTGQEFDGSDSGAQPDEAVSWGKVKPSAGAVKVHAEATLVFPLLVAETFAKHEGHKD	not soluble
MSTRLCEPSLRDDGAQRGTPASHGKWCDTGAFKLDETPSPVVANVSSTSDASFQFNRTPSPGKHQNHAADRSMWSLDDFVIIRKLDEGRFGKVYLAREKQSKCAVVLKCISKDMIRFHSLAHQLQREVELQEYAGRYHKNVLRLFAYFWDDVRIVLVLEYADSGTLQDLLDCYREKEQRSSLPDDKVRTILLQLLSALAFLHERDIIHRDVKPDNILFHGEKLLLADFSWAVRVNNSDPRYCRRHTVCGTLDYLAPEQVLKRGCTTKADLWAVGVVAYRMLCGFLPFEMLDARDVCSCIASGAIRYPSQLSPTARHFLQGLLRVDEALRFSCQEALNHPFMRGDCNCRISNRYIESKHRARAEEPVLQHQGSFDTTKNGTRWIQQKKESWCCSRAPTLNVPEPVHHTGTNCVANHSHNHKDMDKSTTLSCPSASDIVRVRATTERVRCPVDDYSGTSASLITISPLRSTECMQSLSNVSTPSIVSQTHSEWLHSASPISHTPVVAAAATSKCSRDDVGTSSYGVSYSGIRLHNSASDGSGTTTGQHHAQLGTSTHSSFAFAPPTSARYRRDISGYHRINGRGSSPSDHEEYEVASCALRLCFDDEDDADNNCSGALHAAASNRPKTLKSGVMMNGTAPPSHHKGSSYDVR	not soluble
MSTSADYKINQQQIVCVASFLSKEGKTEALIAALASLIPDTRREAGCIRYELNVSRDEPRRVTFVEKFVDIAAFDEHCAKDAIQHYFHQVMPELVESFHVETYHQVIA	soluble
MSTTIQYNSNYADYSISSYLREWANNFGDIDQAPAETKDRGSFSGSSTLFSGTQYAIGSSHSNPEGMIAEGDLKYSFMPQHTFHGQIDTLQFGKDLATNAGGPSAGKHLEKIDITFNELDLSGEFDSGKSMTENHQGDMHKSVRGLMKGNPDPMLEVMKAKGINVDTAFKDLSIASQYPDSGYMSDAPMVDTVGVVDCHDMLLAA	not soluble
MSTVVDQEGNNKQQTVAVIGAGIIGINCALELQSLGYQVTLLDKEGIGLGCSKANAGHFATEQVFPLAEFSLLWQMPKLLFDPLGPVALSAKHFIKAIPWFMQFFNNMRPTLRNKNKKALQALNKNAIHHYTALLKAAEAEHLISLDGSLLVFETNDRTKVELMYQHYLAAGIAVKLLDKRQTLELEPNLSNNINYSLYFTDVAHTIDPLALSKTLAEFAMCKGMTFQQTAVTSVTQTQSGVTVEIDEQHLHVDHCVIACGAWSKKLLNGLNYHLPIEAERGYSLSLPISAAASALLSRPVASAERRFIITPMGKTLRLAGTVEYAGLNAPANYKRAEMLKGNAAYILKRLPENEEKQEAWMGCRPSLPDSLPVICQAPNHDKIFFALGHQHLGLTQGAITGKLIGQLVTGHSPEINIDPFCIRRFNLEHHHHHH	not soluble
MSTYLIGDIHGCLDELLALLAQVNFDPQQDTLWLTGDLVARGPASLDVLRYVRSLGPAVRMVLGNHDLHLLAVYAGISRNKPKDRITPLLDAPDADELINWLRRQPVLQVDDQLKLIMAHAGITPQWDIETAKMCAREVEAVLSSDSYPLFLDAMYGDMPNNWSPELTGLARLRFSTNALTRMRFCFPNGQLDMICKDTPENAPAPLKPWFDLPRLVDPEYSIIFGHWASLEGKGVPEGIYGLDTGCCWGGDLTLLRWDDKRYFTQRAFKAEAEINNNNGFAAGEAVQH	not soluble
MSVASLPECVKNFFPTEQLEFSSSITADEKPVLHEVFQKHSCFSQCGEMIDEVSKKHPELGKRLATVLEGNKKRLDGLSPAAVEYAKKLIHMVTTTLCSLTVGKPIDDADAKRLHQEFQSLSSEDQAALRKNNPDIKF	not soluble
MSVIYKVVTRPSDPRVPNSPKKYYPHLITLGQSVNLKYIAQKMQGYSSLSIGDIKSVIQNFVEKMKEQLLEGKSVNIEGLGVFMLTACSKGADAAKDVNAKSVDSVRIFFQANKELRITKTATRADEKLDLISLDEYLKKLNASVTPNDPDDGENGGGGNEGGDEEAPDPTV	not soluble
